US20230330196A1, “IMMUNOSUPPRESSIVE AGENTS” (The Trustees of Columbia University in the City of New York, priority 2020, published 2023)

Target: T1, PD-1H (Homo sapiens, UniProt Q9H7M9)
T1 construct: Flag (N); expressed in transfected cells; host or cells: HEK293
Assay: Co-immunoprecipitation of c-myc tagged MMP-13 constructs with Flag-PD-1H in HEK293 cells
Format: binding
Details: HEK293 cells co-transfected with Flag-PD-1H; IP with anti-c-myc; FIG. 5A
Protocol: To identify key binding domains between PD-1H and MMP-13, a series of truncated deletion mutants was tested. The MMP-13 zymogen has a pro-peptide domain (aa 20-103) that maintains latency, a catalytic domain (aa 103-268) containing the catalytic zinc-binding motif, and a hinge linker region (aa 269-280) that connects the catalytic domain region with the C-terminal hemopexin domain (aa 281-471).
WCL were analyzed as input. […].

B1: Hem: MMP-13 truncation mutant containing the hemopexin domain (delta aa 37-267) (protein)
chain: LPLPSGGDEDDLSEEDLPGDEDPNPKHPKTPDKCDPSLSLDAITSLRGETMIFKDRFFWRLHPQQVDAELFLTKSFWPELPNRIDAAYEHPSHDLIFIFRGRKFWALNGYDILEGYPKKISELGLPKEVKKISAAVHFEDTGKTLLFSGNQVWRYDDTNHIMDKDYPRLIEEDFPGIGDKVDAVYEKNGYIYFFNGPIQFEYSIWSNRIVRVMPANSILWC
modifications: left off: small tags and cut ends
For B1, the “binding to PD-1H (co-IP)” value was “retained only a fraction of the wild-type binding activity”.
